# Laboratory results published in PMC6010203.
# Target: DS_ConC_SOSIP trimer (ConC_SOSIP with the disulfide 201C-433C) (HIV-1 (clade C consensus))
# Experiment: negative-stain electron microscopy
substance,measurement,value
DS_ConC_SOSIP trimer (ConC_SOSIP with the disulfide 201C-433C) (complex),stoichiometry N,3
